Tested on: Rv1626 D65E (phosphomimic, Rv1626~P) (Mycobacterium tuberculosis)
Experiment: EMSA

## 5' UTR of Mtb Rv1936 (category 1 ANTAR RNA)
  Kd: 15 µM
